This note sets out measurements from US20260258141A1 (BIOCYTOGEN PHARMACEUTICALS BEIJING, published 2026).

In test [1] the target is human IGF1R (insulin-like growth factor 1 receptor) on cells (human) (UniProt P08069). The test can be described thus: flow cytometry on CHO-S-hIGF1R cells, antibody 20 µg/mL.
Test [2] addresses cynomolgus monkey IGF1R on cells (cynomolgus monkey). The test can be described thus: flow cytometry on CHO-S-fasIGF1R cells, antibody 20 µg/mL. (In general: In flow cytometry, cells or beads pass a laser one at a time.)
Test [3] addresses T1, human insulin receptor INSR on cells (human, UniProt P06213 28-1382).
T1 construct: Expressed on CHO-S cells; also called hINSR; CHO-S-hINSR cells
The test can be described thus: flow cytometry on CHO-S-hINSR cells, antibody 20 µg/mL. The method, then: INSR (insulin receptor) and IGF1R are both members of the superfamily of receptor tyrosine kinases (RTKs). The binding activity of anti-IGF1R antibodies to human IGF1R, human INSR and monkey IGF1R was verified by flow cytometry. Briefly, CHO-S-hIGF1R cells (expressing human IGF1R (SEQ ID NO: 45), CHO-S-fasIGF1R cells (expressing cynomolgus monkey IGF1R (SEQ ID NO: 46) and CHO-S-hINSR (expressing SEQ ID NO: 47) were plated in a 96-well plate at a density of 2×10⁵ cells/well respectively. Purified anti-IGF1R antibody with a concentration of 20 μg/mL was added to each well and was incubated at 4° C. for 30 minutes. Then, after one wash with PBS, the cells were incubated with the secondary antibody Alexa Fluor® 647 anti-human IgG Fcγ (Jackson ImmunoResearch Laboratories, Inc., Cat #: 109-606-170) at 4° C. for 15 minutes before flow cytometry analysis. Human IgG1 was used as ISO control.

T1 sequence (P06213 other isoform, or with tags, fused parts or gaps limits assumed): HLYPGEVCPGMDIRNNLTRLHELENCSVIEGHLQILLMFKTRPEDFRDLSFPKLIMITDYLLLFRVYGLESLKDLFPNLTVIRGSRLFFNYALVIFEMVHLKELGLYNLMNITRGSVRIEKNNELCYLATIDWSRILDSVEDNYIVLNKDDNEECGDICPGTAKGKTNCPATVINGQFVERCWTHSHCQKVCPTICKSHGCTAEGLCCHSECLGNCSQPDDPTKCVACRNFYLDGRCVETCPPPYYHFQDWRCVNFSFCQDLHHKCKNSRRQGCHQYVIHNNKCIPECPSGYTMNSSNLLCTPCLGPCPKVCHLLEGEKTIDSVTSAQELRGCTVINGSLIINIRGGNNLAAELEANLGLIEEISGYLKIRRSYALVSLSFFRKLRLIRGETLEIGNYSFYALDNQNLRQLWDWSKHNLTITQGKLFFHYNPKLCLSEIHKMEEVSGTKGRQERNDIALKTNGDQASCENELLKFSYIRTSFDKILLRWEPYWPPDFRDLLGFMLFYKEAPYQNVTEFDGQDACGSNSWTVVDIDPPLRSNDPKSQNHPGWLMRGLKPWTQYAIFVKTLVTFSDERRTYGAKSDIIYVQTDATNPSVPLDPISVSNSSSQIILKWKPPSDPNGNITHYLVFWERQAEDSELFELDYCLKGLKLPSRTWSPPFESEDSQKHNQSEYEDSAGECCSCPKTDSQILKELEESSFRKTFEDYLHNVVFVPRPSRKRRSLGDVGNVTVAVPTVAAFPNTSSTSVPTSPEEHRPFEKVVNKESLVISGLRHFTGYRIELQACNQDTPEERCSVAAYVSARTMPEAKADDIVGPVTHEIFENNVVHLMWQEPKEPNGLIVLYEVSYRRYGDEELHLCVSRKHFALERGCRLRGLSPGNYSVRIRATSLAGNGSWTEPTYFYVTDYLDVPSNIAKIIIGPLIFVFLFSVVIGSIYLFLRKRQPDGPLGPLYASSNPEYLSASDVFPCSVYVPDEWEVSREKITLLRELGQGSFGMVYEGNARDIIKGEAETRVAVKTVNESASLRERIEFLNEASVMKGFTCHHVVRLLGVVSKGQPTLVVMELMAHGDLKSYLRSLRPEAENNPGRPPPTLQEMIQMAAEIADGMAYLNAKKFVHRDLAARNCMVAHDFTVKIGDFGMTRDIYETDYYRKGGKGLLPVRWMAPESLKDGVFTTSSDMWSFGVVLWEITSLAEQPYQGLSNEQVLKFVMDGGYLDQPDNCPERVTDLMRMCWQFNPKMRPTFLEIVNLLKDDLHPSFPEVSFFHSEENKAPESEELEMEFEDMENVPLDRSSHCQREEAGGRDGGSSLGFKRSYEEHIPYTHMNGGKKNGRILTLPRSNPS
cynomolgus monkey IGF1R on cells (cynomolgus monkey), sequence (P08069 other isoform, or with tags, fused parts or gaps limits assumed): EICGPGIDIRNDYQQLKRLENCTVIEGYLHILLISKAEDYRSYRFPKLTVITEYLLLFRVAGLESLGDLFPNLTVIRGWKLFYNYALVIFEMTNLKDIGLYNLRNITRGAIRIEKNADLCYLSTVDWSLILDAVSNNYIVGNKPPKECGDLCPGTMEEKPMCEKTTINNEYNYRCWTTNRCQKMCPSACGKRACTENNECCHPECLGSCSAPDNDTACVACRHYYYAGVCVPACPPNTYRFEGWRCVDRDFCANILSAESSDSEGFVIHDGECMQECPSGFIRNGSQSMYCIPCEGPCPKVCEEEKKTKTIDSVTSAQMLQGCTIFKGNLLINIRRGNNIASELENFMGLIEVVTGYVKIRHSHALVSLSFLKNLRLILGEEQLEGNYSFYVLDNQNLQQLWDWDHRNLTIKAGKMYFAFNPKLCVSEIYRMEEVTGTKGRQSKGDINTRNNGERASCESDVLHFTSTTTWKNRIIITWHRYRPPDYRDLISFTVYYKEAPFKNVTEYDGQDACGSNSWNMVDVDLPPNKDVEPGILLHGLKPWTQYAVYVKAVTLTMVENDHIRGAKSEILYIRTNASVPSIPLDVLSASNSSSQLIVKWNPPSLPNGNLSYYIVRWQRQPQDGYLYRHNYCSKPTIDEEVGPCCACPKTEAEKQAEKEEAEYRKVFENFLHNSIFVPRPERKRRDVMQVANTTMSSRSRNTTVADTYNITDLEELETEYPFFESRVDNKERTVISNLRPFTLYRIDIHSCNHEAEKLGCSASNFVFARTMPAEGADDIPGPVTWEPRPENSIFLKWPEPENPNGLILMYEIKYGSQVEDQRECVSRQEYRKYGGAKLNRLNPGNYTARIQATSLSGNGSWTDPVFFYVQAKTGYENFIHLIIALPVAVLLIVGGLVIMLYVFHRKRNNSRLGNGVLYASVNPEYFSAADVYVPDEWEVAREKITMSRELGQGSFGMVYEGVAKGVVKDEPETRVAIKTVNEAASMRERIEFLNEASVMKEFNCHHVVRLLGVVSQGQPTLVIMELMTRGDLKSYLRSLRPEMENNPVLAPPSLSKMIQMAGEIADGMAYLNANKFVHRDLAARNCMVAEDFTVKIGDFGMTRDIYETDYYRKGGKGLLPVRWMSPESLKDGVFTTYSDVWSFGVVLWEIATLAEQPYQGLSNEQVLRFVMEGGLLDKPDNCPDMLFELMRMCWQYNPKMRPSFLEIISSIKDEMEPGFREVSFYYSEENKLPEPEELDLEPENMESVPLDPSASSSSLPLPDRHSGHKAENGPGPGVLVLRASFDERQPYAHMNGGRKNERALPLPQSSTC
human IGF1R (insulin-like growth factor 1 receptor) on cells (human), sequence (P08069 31-1367 limits assumed): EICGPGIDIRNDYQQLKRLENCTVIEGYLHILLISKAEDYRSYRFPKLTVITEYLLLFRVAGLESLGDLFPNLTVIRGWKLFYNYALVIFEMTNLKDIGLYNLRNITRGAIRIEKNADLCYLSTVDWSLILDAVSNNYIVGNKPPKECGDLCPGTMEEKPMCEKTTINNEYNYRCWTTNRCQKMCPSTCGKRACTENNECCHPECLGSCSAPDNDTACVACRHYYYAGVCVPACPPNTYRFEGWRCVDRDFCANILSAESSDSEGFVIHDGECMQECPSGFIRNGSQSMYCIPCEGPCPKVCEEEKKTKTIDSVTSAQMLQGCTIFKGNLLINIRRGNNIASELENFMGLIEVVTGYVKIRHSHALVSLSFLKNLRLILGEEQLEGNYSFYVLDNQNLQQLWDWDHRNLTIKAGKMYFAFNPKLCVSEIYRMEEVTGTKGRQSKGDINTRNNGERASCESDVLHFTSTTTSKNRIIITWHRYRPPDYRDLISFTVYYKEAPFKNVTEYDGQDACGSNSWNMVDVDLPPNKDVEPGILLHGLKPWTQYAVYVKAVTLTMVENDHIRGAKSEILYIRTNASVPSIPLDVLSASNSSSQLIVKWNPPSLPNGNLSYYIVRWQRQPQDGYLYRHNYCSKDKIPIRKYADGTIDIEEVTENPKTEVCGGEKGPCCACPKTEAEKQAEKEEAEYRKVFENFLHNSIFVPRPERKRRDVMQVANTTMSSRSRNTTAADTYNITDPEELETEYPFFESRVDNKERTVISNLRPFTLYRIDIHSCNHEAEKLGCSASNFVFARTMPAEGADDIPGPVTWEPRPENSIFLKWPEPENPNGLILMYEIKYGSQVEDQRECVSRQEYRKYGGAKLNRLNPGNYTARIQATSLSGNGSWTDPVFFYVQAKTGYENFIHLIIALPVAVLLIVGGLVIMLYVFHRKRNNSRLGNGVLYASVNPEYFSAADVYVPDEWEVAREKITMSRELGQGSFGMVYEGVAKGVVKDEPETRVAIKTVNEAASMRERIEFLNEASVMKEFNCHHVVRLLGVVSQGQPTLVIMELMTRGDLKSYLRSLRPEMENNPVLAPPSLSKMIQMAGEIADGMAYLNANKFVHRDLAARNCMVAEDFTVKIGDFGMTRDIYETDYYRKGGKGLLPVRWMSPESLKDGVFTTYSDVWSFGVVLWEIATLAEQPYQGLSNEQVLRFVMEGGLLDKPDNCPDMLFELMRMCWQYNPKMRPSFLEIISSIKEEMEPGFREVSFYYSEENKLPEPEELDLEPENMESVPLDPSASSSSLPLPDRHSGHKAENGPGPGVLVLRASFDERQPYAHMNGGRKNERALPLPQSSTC

Regarding Human IgG1 ISO control (antibody), the Percentage of positive cells was determined as 0.7% in test [1], 0.3% in test [2] and 0.4% in test [3].

B1: Teprotumumab analog (antibody, V domains shown)
VH: QVELVESGGGVVQPGRSQRLSCAASGFTFSSYGMHWVRQAPGKGLEWVAIIWFDGSSTYYADSVRGRFTISRDNSKNTLYLQMNSLRAEDTAVYFCARELGRRYFDLWGRGTLVSVSS
VL: EIVLTQSPATLSLSPGERATLSCRASQSVSSYLAWYQQKPGQAPRLLIYDASKRATGIPARFSGSGSGTDFTLTISSLEPEDFAVYYCQQRSKWPPWTFGQGTKVESKR
notes: also called positive control
Take B1: the “Percentage of positive cells” value in test [3] was 1.5%.
